Experimental data: US20230183329A1, “COMBINATION THERAPY FOR TTR AMYLOIDOSIS” (Neurimmune AG, priority 2020, published 2023)
Each block holds one molecule with its values, some of them ahead of it.

Experiments:
[1] = cited from earlier work
mis.WT-TTR aggregates = biological target: T1, mis.WT-TTR aggregates (Homo sapiens, UniProt P02766); experiment: Direct ELISA, NI-301.37F1 binding to amyloid wtTTR aggregates in presence of TTR tetramer stabilizers; conditions: for EC50 value of antibody binding to TTR amyloid: versus vehicle
T1 construct: Plasma-purified wtTTR was provided as a solution at a concentration of 2 mg/mL in PBS buffer; from tissue; host or cells: human plasma
Method: 96 well microplates were coated for 1 hour at 37° C. with mis.WT-TTR aggregates diluted to a concentration of 10 μg/mL in PBS buffer pH7.4. Non-specific binding sites were blocked for 1 hour at room temperature (RT) with a blocking buffer containing 2% bovine serum albumin (BSA) and 0.1% tween-20 in PBS buffer. Human NI-301.37F1 antibody was diluted in duplicates to the indicated concentrations in PBS supplemented with tafamidis or diflunisal at 10 μg/mL or corresponding concentration of vehicle buffer, and incubated overnight at 4° C. Binding was determined using an anti-human IgG antibody conjugated with horseradish peroxidase (HRP), followed by measurement of HRP activity in a standard colorimetric assay.
Data were analyzed with the Prism software from GraphPad. EC50 values were estimated using non-linear regression of individual data points using log(agonist) versus response model with variable slope. Data fitting was performed with the least square regression method.
For the assessment of the binding affinity of anti-TTR antibody in the presence of TTR tetramer stabilizer direct ELISA and EC50 determination has been substantially performed in Example 3 of WO 2015/092077 A1. ELISA plates were coated for 1 h at 37° C. with amyloid wtTTR aggregates and blocked for 1 h at room temperature with blocking buffer (PBS pH 7.4, 1% BSA and 0.1% polysorbate 20).
Tafamidis and diflunisal were dissolved in vehicle (80% PBS pH 7.4, 10% ethanol, 10% polysorbate 80) and antibody NI-301.37F1 dilution series were prepared with tafamidis or diflunisal at a final concentration of 10 μg/mL or a corresponding volume of the vehicle. The concentration of 10 μg/mL is […] the maximal peak concentration in patients treated with tafamidis at 80 mg per day (˜6 μg/mL). NI-301.37F1 dilution series were incubated in the ELISA plates overnight at 4° C., and, after washes, NI-301.37F1 was detected using an horseradish peroxidase (HRP)-coupled anti-human IgG antibody and standard detection methods. Data were analyzed with the Prism software from GraphPad. […]

[2] = biological target: T2, soluble ATTR oligomers (mis.WT-TTR) (Homo sapiens, UniProt P02766); experiment: BLI binding kinetic assay, soluble ATTR oligomers; conditions: in presence or absence of AG10 or diflunisal at 5 μg/mL
T2 construct: Plasma-purified wtTTR was provided as a solution at a concentration of 2 mg/mL in PBS buffer; from tissue; host or cells: human plasma
Method: (§1) The antibody NI-301.37F1 was loaded on anti-human capture sensors at 5 μg/mL in PBS for 5 min at 25° C. The binding assay was performed with soluble WT-TTR amyloid aggregates and tetrameric WT-TTR. A baseline was performed in 1× kinetic buffer for 3 min, the association was measured for 10 min and the dissociation for another 10 min in 1× kinetic buffer, all steps performed at 25° C. with shaking at 1000 rpm. A reference sample was also included consisting in 1× kinetic buffer.
(§2) Data were analyzed in ForteBio Data Analysis 8.2 software, using reference subtraction and interstep correction between association and dissociation.
NI-301.37F1 absent binding to TTR tetramers was investigated in presence and absence of TTR stabilizers using BLI. Soluble ATTR oligomers were included in this experiment to serve as positive controls.
NI-301.37F1 binding to ATTR oligomers and TTR tetramers was evaluated in presence of the TTR stabilizers AG10 and diflunisal at 5 μg/mL, or in presence of corresponding vehicle buffer using BLI.

[3] = biological target: T3, TTR tetramers (tetr.WT-TTR) (Homo sapiens, UniProt P02766); experiment: BLI binding kinetic assay, TTR tetramers
T3 construct: Plasma-purified wtTTR was provided as a solution at a concentration of 2 mg/mL in PBS buffer; from tissue; host or cells: human plasma
Method: as §1, §2
NI-301.37F1 absent binding to TTR tetramers was investigated in presence and absence of TTR stabilizers using BLI. Soluble ATTR oligomers were included in this experiment to serve as positive controls. […]

misfolded TTR = misfolded TTR (Homo sapiens, UniProt P02766); conditions: cited from earlier work

Molecule: O=C(O)c1ccc2nc(-c3cc(Cl)cc(Cl)c3)oc2c1 [tafamidis]
mean half-life ([1]; human): approximately 49 hours
maximal peak concentration ([1]; patients treated with tafamidis at 80 mg per day): ~6 µg/mL

binding to ATTR oligomers in solution [2]: virtually identical
binding to TTR-diflunisal complexes ([3]; TTR tetramers in presence of diflunisal): did not bind
binding to TTR-tafamidis complexes ([3]; TTR tetramers in presence of tafamidis): did not bind
binding selectivity (absent binding to TTR tetramers) ([3]; in presence of TTR stabilizers (conclusion)): maintained
binding to TTR tetramers in solution ([3]; no stabilizer): did not bind
B1: NI-301.37F1: human-derived monoclonal anti-TTR antibody binding epitope TTR41-45, selective for misfolded TTR, disclosed in WO 2015/092077 A1 (antibody, V domains shown)
VH: QVQLQESGPGLVKPSETLSLTCSVSGGSIISRSSYWGWIRQPPGKGLEWIGGIYHSGNTYDNPSLKSRLTMSVDTSKNQFSLNLRSVTAADTAVYYCARIVPGGDAFDIWGQGTMVTVSS
VL: DIQMTQSPSSLSASVGDRVTIACRASQSVGTYLNWYQQKRGKAPKLLIFAASSLQSGVPSRFSGSGSGTDFTLTISSLQPEDFATYYCQQSYSSPPTFGQGTKVEIK
binding to amyloidogenic TTR (mis.WT-TTR aggregates; in the presence of TTR stabilizers tafamidis and diflunisal, 10 μg/mL): maintained
EC50 value of antibody binding to TTR amyloid (mis.WT-TTR aggregates; in the presence of diflunisal at 10 μg/mL): increased
EC50 value of antibody binding to TTR amyloid (mis.WT-TTR aggregates; in the presence of tafamidis at 10 μg/mL): remained substantially unaffected
binding affinity to misfolded TTR (misfolded TTR): sub-nanomolar range
